In patent publication US20210324069A1 (PROGASTRINE ET CANCERS S R L, published 2021):

B1: mAb19 (antibody, V domains shown)
VH: DVQLQESGPGLVKPSQSLSLTCTVTGYSITSDYAWNWIRQFPGNKLEWMGYISFSGYTSYNPSLKSRISVTRDTSRNQFFLQLTSVTTEDTATYYCAREVNYGDSYHFDYWGQGTIVTVSS
VL: QLALTQSSSASFSLGASAKLTCTLSSQHRTYTIEWYQQQSLKPPKYVMEVKKDGSHSTGHGIPDRFSGSSSGADRYLSISNIQPEDEAIYICGVGDAIKGQSVFVFGGGTKVTVL
notes: Murine monoclonal antibody from a hybridoma; also called hybridoma 1B3B4F11
B2: mAb16 (antibody, V domains shown)
VH: QVQLQQSGAELVKPGASVKLSCKASGYTFTSYYMYWVKQRPGQGLEWIGEINPSNGGTNFNEKFKSKATLTVDKSSSTAYMQLSSLTSEDSAVYYCTRGGYYPFDYWGQGTTLTVSS
VL: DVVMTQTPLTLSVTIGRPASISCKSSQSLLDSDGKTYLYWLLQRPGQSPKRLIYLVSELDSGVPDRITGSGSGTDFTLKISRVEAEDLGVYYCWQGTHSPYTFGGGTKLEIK
notes: Murine monoclonal antibody from a hybridoma; also called hybridoma 1E9D9B6
B3: mAb4 (antibody, V domains shown)
VH: QVQLQQSGAELMKPGASVKISCKATGYTFSSSWIEWLKQRPGHGLEWIGEFLPGSGSTDYNEKFKGKATFTADTSSDTAYMLLSSLTSEDSAVYYCATDGNYDWFAYWGQGTLVTVSA
VL: DLVMTQTPLSLPVSLGDQASISCRSSQSLVHSSGVTYLHWYLQKPGQSPKLLIYKVSNRFSGVPDRFSGSGSGTDFTLKISRVEAEDLGVYFCSQSTHVPPTFGSGTKLEIK
notes: Murine monoclonal antibody from a hybridoma; also called hybridoma 20D2C3G2
B4: mAb3 (antibody, V domains shown)
VH: EVQLQQSGTVLARPGASVKMSCKASGYIFTSYWVHWVKQRPGQGLEWIGGFYPGNSDSRYNQKFKGKATLTAVTSASTAYMDLSSLTNEDSAVYFCTRRDSPQYWGQGTTLTVSS
VL: DVLMTQTPLSLPVSLGDQASISCRSSQSIVHSNGNTYLEWYLQKPGQSPKLLIYKVSNRFSGVPDRFSGSGSGTDFTLKISRLEAEDLGVYYCFQGSHVPFTFGGGTKLEIK
notes: Murine monoclonal antibody from a hybridoma; also called hybridoma 6B5B11C10
B5: mAb13 (antibody, V domains shown)
VH: EVQLVESGGGLVQPGGSLKLSCAASGFIFSSYGMSWVRQSPDRRLELVASINTFGDRTYYPDSVKGRFTISRDNAKNTLYLQMTSLKSEDTAIYYCARGTGTYWGQGTTLTVSS
VL: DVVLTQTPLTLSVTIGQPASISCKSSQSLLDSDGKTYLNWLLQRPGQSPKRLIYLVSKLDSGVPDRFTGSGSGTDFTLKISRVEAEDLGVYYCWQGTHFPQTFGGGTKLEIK
notes: Murine monoclonal antibody from a hybridoma; also called hybridoma 2C6C3C7

Molecular target: T1, human progastrin (human)
T1 construct: 80-residue progastrin; also called hPG; PG
T1 chain: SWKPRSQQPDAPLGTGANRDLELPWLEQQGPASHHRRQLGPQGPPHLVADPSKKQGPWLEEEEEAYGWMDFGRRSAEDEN
Test: epitope mapping (no details given)

Binder | binding result
B1 | binds
B2 | binds
B3 | binds
B4 | binds
B5 | binds
